We go through one substance from publication PMC4085236.

Assay [1] deals with Cullin5/Rbx1 complex (mouse | not stated) (UniProt Q9D5V5). The assay can be described thus: SEC. Background: Size exclusion chromatography separates by hydrodynamic size, large species first.
Assay [2] addresses GST-Cul5(NTD)/HIS6-Rbx2/Cul(CTD) complex (mouse) (UniProt Q9D5V5). The assay can be described thus: pull-down + SEC.

Murine SOCS3/elonginsBC complex, sequence (O35718 22-225): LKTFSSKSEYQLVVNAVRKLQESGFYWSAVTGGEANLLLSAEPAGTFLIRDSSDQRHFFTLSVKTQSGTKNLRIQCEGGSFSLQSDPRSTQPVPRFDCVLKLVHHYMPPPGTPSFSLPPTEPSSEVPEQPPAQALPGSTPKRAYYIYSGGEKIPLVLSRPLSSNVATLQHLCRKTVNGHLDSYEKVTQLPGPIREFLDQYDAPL
Murine SOCS3/elonginsBC complex, sequence (P62869 whole entry): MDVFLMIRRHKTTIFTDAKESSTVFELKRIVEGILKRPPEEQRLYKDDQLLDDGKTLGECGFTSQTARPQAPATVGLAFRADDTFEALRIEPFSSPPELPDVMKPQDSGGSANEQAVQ
Murine SOCS3/elonginsBC complex, sequence (P83940 whole entry): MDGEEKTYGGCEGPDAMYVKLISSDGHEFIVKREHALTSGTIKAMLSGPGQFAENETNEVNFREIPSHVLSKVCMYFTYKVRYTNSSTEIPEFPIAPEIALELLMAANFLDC
GST-Cul5(NTD)/HIS6-Rbx2/Cul(CTD) complex (mouse), sequence (Q9D5V5 1-384, chain 1 of 3): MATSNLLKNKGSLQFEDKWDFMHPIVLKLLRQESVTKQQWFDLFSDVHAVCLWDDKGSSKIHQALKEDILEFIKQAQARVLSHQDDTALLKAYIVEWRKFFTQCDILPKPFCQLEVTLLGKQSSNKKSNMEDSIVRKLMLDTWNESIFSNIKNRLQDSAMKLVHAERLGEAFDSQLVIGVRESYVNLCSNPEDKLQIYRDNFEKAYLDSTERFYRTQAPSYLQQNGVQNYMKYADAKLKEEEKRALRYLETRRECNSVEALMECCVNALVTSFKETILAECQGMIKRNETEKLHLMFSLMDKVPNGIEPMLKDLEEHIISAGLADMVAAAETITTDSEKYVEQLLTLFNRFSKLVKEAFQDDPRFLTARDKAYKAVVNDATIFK
GST-Cul5(NTD)/HIS6-Rbx2/Cul(CTD) complex (mouse), sequence (Q9D5V5 385-780, chain 2 of 3): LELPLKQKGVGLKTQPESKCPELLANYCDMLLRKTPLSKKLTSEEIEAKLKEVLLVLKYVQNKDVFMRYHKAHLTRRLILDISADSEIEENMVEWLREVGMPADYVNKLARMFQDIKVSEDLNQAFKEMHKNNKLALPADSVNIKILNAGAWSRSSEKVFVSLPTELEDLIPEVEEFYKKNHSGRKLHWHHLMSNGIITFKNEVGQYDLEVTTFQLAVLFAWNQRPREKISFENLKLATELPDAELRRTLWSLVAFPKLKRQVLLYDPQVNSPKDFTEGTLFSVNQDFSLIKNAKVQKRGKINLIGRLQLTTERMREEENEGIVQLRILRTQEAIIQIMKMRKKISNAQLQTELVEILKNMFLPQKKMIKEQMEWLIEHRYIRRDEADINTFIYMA
GST-Cul5(NTD)/HIS6-Rbx2/Cul(CTD) complex (mouse), sequence (Q9WTZ1 whole entry, chain 3 of 3, further chain): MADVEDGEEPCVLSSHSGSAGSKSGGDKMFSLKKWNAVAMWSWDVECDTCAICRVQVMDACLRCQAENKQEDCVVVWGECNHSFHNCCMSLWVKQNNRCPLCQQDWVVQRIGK
Cullin5/Rbx1 complex (mouse | not stated), sequence (Q9D5V5 1-384, chain 1 of 3): as the sequence (Q9D5V5 1-384, chain 1 of 3) above
Cullin5/Rbx1 complex (mouse | not stated), sequence (Q9D5V5 385-780, chain 2 of 3): as the sequence (Q9D5V5 385-780, chain 2 of 3) above
Cullin5/Rbx1 complex (mouse | not stated), sequence (P62878 whole entry, chain 3 of 3, further chain): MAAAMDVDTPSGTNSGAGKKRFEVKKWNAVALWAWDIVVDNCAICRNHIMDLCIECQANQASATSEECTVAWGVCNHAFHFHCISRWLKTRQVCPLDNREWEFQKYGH

With “Murine SOCS3/elonginsBC complex (from UniProt O35718 22-225; P62869 1-118; P83940 1-112)”, the stoichiometry N in assay [1] and in assay [2] was 1 throughout.
